Data on one molecule can be found in patent publication EP4722254A1.

The target of the experiment is Recombinant Human-FGFR2-His protein (human) (UniProt P21802). In words: ELISA, Human-FGFR2-His coated, anti-human Fc-HRP detection.
Chain of Recombinant Human-FGFR2-His protein (human) (P21802 other isoform, or with tags, fused parts or gaps limits assumed): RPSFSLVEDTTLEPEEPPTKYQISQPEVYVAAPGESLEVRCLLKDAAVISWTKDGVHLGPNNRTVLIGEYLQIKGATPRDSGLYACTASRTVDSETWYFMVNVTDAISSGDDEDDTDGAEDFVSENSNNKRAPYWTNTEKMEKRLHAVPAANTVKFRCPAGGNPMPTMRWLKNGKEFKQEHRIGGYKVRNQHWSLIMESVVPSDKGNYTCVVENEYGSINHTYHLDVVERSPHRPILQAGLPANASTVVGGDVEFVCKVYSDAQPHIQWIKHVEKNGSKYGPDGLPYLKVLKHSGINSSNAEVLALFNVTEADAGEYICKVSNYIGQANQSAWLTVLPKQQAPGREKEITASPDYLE

B1: anti-FGFR2/PD-1 bispecific antibody c (bispecific antibody, part only; not given: anti-PD-1 constant regions, part only)
heavy, part: EVKLVESGGGLVQPGGSLRLSCAASGFAFSSYDMSWVRQAPGKRLEWVATISGGGRYTYYPDTVKGRFTISRDNAKNSHYLQMNSLRAEDTAVYFCASPYGGYFDVWGQGTLVTVSSGGGGSGGGGSGGGGSQVQLVQSGAEVKKPGSSVKVSCKASGYTFTSYWMHWVRQAPGQGLEWMGAIYPGNSDTDYSGKFKGRVTITADESTSTAYMELSSLRSEDTAVYYCSKFDYWGQGTLVTVSSGGGGSGGGGSGGGGSGGGGSEIVLTQSPATLSLSPGERATLSCRASSSVNYMYWYQQKPGQAPRPWIYLTSNRATGVPARFSGSGSGTDYTLTISSLEPEDFAVYYCQQWSSNPYTFGQGTKLEIKRTV
light, part: EIVLTQSPATLSLSPGERATLSCRASQSISNFLHWYQQKPGQAPRLLIKYASQSISGIPARFSGSGSGTDFTLTISSLEPEDFAVYFCQQSNSWPHTFGQGTKVEIK
In the case of B1, the EC50 was 0.624 nM.
